The assay addresses T1, recombinant human IL-17A (human, UniProt Q16552 24-155).
T1 construct: also called Peprotech cat# AF-200-17
T1 sequence: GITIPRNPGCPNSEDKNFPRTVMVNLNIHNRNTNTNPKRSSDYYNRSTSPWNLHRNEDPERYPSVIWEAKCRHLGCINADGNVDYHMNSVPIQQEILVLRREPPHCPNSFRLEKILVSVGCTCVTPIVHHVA
The assay can be described thus: ELISA.

B1: VH domain as identified in SEQ ID NO: 1 (optimised anti-IL-17A single VH domain antibody) (VHH)
VHH: EVQLVESGGGLVQPGGSLRLSCAASGFTFSSYSMYWVRQAPGKGLEWVAEIKQDGSVQYYVSDVKGRFTISRDNAKNSLYLQMNSLRAEDTAVYYCAKGEILPLYFDYWGQGTLVTVSS
notes: Human VH single domain antibody (Humabody VH) without a light chain, from Tg/TKO mice and then optimised
As for B1, the binding result is recorded as “binds”.

Values taken from US20190300603A1 (CRESCENDO BIOLOGICS, published 2019).
